Assay [1] has as its target T1, full length Sse1p (yeast Hsp110) (Saccharomyces cerevisiae (yeast), UniProt P32589 2-693).
T1 construct: Purified as in Goeckeler et al., 2002; also called Sselp
T1 sequence: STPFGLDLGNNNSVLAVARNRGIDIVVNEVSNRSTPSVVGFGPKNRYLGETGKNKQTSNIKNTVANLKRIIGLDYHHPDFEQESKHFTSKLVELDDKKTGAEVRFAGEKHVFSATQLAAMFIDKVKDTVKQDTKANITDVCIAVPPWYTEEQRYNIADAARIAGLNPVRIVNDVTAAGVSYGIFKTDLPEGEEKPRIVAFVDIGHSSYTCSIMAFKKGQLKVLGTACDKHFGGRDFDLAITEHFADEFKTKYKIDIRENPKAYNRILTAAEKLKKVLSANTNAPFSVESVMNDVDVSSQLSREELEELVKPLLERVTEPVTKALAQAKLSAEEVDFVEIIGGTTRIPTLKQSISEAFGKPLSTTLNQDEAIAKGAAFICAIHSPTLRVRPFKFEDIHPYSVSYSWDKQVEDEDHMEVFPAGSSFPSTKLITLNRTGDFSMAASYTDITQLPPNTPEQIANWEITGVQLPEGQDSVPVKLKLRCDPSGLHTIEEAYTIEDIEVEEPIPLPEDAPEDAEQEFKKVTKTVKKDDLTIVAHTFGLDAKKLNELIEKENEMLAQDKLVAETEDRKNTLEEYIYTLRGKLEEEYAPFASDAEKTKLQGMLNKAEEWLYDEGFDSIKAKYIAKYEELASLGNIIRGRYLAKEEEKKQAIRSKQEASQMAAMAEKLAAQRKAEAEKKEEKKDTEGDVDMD
The assay is described as follows: fluorescence anisotropy. The procedure: (§1) In this assay, full length Sse1p and the peptide binding domain of Sse1p were bound to a 6-carboxyfluorescein-aminohexanoic acid-N-terminal-linked-polypeptide having the sequence N-[…]-C (SEQ ID NO: 1), which was derived from firefly luciferase. Binding was assessed by fluorescence anisotropy. […] Unlabeled peptide competes for binding (data not shown).

In assay [2] the target is T2, peptide binding domain of Sse1p (Saccharomyces cerevisiae (yeast), UniProt P32589 375-693, limits assumed).
T2 sequence: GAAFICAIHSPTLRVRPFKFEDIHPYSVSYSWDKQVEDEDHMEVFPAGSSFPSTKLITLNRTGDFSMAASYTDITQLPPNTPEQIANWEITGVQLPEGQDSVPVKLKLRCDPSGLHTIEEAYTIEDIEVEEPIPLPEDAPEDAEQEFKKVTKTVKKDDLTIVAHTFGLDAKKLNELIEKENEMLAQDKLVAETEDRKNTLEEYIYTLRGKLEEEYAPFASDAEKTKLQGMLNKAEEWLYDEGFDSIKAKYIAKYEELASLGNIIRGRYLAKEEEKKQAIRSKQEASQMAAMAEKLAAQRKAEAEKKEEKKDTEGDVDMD
The assay can be described thus: fluorescence anisotropy; reference is full-length Sse1p. The procedure:
as §1

Assay [3] deals with T1, full length Sse1p (yeast Hsp110). The assay can be described thus: fluorescence anisotropy competition against the labeled peptide.

We go through 2 molecules from patent US20070293451A1 (UNIVERSITY OF PITTSBURGH, published 2007).

Ends that are not written are not given here. * marks the point of attachment. 6FAM = O=C1OC2(c3ccc(O)cc3Oc3cc(O)ccc32)c2cc(C(=O)*)ccc21; Ahx = NCCCCCC(=O)O

B1: 6-carboxyfluorescein-aminohexanoic acid-N-terminal-linked polypeptide LICGFRVVLMYRF (derived from firefly luciferase) (peptide)
peptide: {6FAM-Ahx}-LICGFRVVLMYRF
notes: also called fluorescently labeled peptide
In turn, B1 had a Kd in assay [1] of 2 to 3 nM. In addition, the “fold lower affinity than full-length Sse1p” value in assay [2] is about 100 fold. Turning to LICGFRVVLMYRF [unlabeled peptide LICGFRVVLMYRF], the binding result in assay [3] is on record as “binds”.
